Assay results from patent US20250195617A1, “Liquid Pharmaceutical Formulations of CNP Compounds” (Ascendis Pharma Growth Disorders A/S, priority 2022, published 2025).
Bridges are numbered along the chain shown (N, C = ends). Where no end group is shown, it is not given here.

Test: Storage stability of CNP peptide liquid formulations (F33-45), content and purity by RP-HPLC/MS
Format: physicochemical
Conditions: acetate buffer, 5° C., 6 months, LC-MS
Procedure: All excipient stock solutions, except for phenol and m-cresol, were prepared by combining the required excipients in a volumetric flask and filling it up to 90% of the desired volume with water. The pH of the stock solutions was adjusted using 1 M NaOH solution as required and the volume adjusted to the desired volume with water. The stock solutions were filtered through a 0.2 μm PVDF-filter. Stock solutions of phenol (1.75%) and m-cresol (1.05%) were prepared by adding the preservative to the respective excipient stock solution after filtration. Next, the required amount of CNP was dissolved in the required amount of the desired excipient stock solution and the pH was checked and adjusted if needed with 1 M NaOH. The formulations were filtered through a 0.22 μm PVDF filter and the respective preservative stock solution was added. The formulations were aliquoted ready for incubation.
RP-HPLC/MS to determine the content and purity of CNP (F33-45): Mobile phase A was composed of 0.05% aqueous TFA (v/v) and mobile phase B was composed of 0.04% TFA (v/v) in acetonitrile. A Waters Acquity CSH C18, 130 Å, 1.7 μm, 2.1×100 mm column was used. Flow rate was set to 0.3 ml/min, detection was at a wavelength of 215 nm, the column running temperature was 65° C. and the sample injection load was approx. 3 μg CNP-38 eq. (20 μL of a 0.135 mg/ml sample). Samples were diluted to 0.135 mg/mL with dilution buffer (10 mM succinic acid, 84 g/l trehalose dihydrate, adjusted to pH 5 with 1M Tris). For LCMS the HPLC system was coupled to an LTQ Orbitrap Discovery XL instrument and ESI-MS was performed in the positive mode. The change in content of the TIM, T3M and T6M was determined by peak area comparison to the TO sample. For determination of the purity, all peaks higher than the LOQ (0.10%) and not present in the blank were integrated.
The influence of the buffering agent, pH, tonicity agent, detergent, and preservative on the stability of CNP-38 was evaluated. For this purpose, nine formulations of CNP-38 were prepared at a concentration of 2 mg/mL and incubated for 6 months (Table 16). One formulation each at pH 4.5 (F33), pH 5.0 (F34) and pH 4.0 (F35) in acetate buffer were prepared. L-methionine was used to prevent the oxidation of the methionine residue in the peptide, trehalose dihydrate was used as a tonicity or isotonicity agent, Poloxamer 188 as a detergent and m-cresol as a preservative. Another formulation at pH 4.5 containing the same excipients was prepared, in which trehalose was switched to mannitol (F37). […] The formulations were incubated at 5° C. To evaluate whether acetate adducts are formed in acetate buffer, the same formulation as in F33 was incubated at accelerated conditions at 25° C. (F33, 25° C.). […]

Formation of acetylated species, No acetylated peptides:
GANKKGLSKGCFGLKLDRIGSMSGLGC (disulfide 11-27) [CNP-27], PGQEHPNARKYKGANKKGLSKGCFGLKLDRIGSMSGLGC (disulfide 23-39) [PG-CNP-37], DLRVDTKSRAAWARLLQEHPNARKYKGANKKGLSKGCFGLKLDRIGSMSGLGC (disulfide 37-53; listed as Homo sapiens) [CNP-53], GLSKGCFGLKLDRIGSMSGLGC [CNP-22]
